# B1: 22110 (protein)
# chain: MALPVTALLLPLALLLHAARPQLQLQESGPGLVKPSETLSLTCTVSGDSISSGDYYWGWIRQPPGKGLEWIGHIYYSGVTYYNPSLKSRVTISVDTSRNQFSLKLSSVTAADTAVYYCTREDSSNWRSRGQGTLVTVSSGTGGGGSGGGGSGGGGSEFDIQMTQSPSSLSASVGDRVTITCKASDHINNWLAWYQQKPGQAPKLLIYGATTLETGVPSRFSGSGSGTDYTLTISSLQPEDFATYYCQQSWNTPWTFGQGTKLEIKRLEDLKNVFPPEVAVFEPSEAEISHTQKATLVCLATGFYPDHVELSWWVNGKEVHSGVCTDPQPLKEQPALNDSRYCLSSRLRVSATFWQNPRNHFRCQVQFYGLSENDEWTQDRAKPVTQIVSAEAWGRADCGFTSESYQQGVLSATILYEILLGKATLYAVLVSALVLMAMVKRKDSRGRAKRSGSGATNFSLLKQAGDVEENPGPTSMDWIWRILFLVGAATGAHSFEQVQLQQPGAELVKPGASVKMSCKASGYAFSSYWINWMKQKPGQGLEWIGQIYPGDGDTNYNGKFKGRATLTADTSSSTAYMQLSSLTSEDSAVYFCARSITTVVGCAMDYWGQGTSVTVSSTRIQNPDPAVYQLRDSKSSDKSVCLFTDFDSQTNVSQSKDSDVYITDKCVLDMRSMDFKSNSAVAWSNKSDFACANAFNNSIIPEDTFFPSPESSCDVKLVEKSFETDTNLNFQNLSVIGFRILLLKVAGFNLLMTLRLWSSRAKRSGSGVKQTLNFDLLKLAGDVESNPGPSRGHMTEYKPTVRLATRDDVPRAVRTLAAAFADYPATRHTVDPDRHIERVTELQELFLTRVGLDIGKVWVADDGAAVAVWTTPESVEAGAVFAEIGPRMAELSGSRLAAQQQMEGLLAPHRPKEPAWFLATVGVSPDHQGKGLGSAVVLPGVEAAERAGVPAFLETSAPRNLPFYERLGFTVTADVEVPEGPRTWCMTRKPGA
# B2: 22104 (protein)
# chain: MALPVTALLLPLALLLHAARPDIQMTQSPSSLSASVGDRVTITCKASDHINNWLAWYQQKPGQAPKLLIYGATTLETGVPSRFSGSGSGTDYTLTISSLQPEDFATYYCQQSWNTPWTFGQGTKLEIKRLEDLKNVFPPEVAVFEPSEAEISHTQKATLVCLATGFYPDHVELSWWVNGKEVHSGVCTDPQPLKEQPALNDSRYCLSSRLRVSATFWQNPRNHFRCQVQFYGLSENDEWTQDRAKPVTQIVSAEAWGRADCGFTSESYQQGVLSATILYEILLGKATLYAVLVSALVLMAMVKRKDSRGRAKRSGSGATNFSLLKQAGDVEENPGPTSATMDWIWRILFLVGAATGAHSGPQVQLQESGGGLAQAGGSLRLSCAASGRTFSMGWFRQAPGKEREFVAAITYSGGSPYYASSVRGRFTISRDNAKNTVYLQMNSLKPEDTAVYYCAANPTYGSDWNAENWGQGTQVTVSSGSGGGGSGGGGSGGGGSFEQVQLQQPGAELVKPGASVKMSCKASGYAFSSYWINWMKQKPGQGLEWIGQIYPGDGDTNYNGKFKGRATLTADTSSSTAYMQLSSLTSEDSAVYFCARSITTVVGCAMDYWGQGTSVTVSSTRIQNPDPAVYQLRDSKSSDKSVCLFTDFDSQTNVSQSKDSDVYITDKCVLDMRSMDFKSNSAVAWSNKSDFACANAFNNSIIPEDTFFPSPESSCDVKLVEKSFETDTNLNFQNLSVIGFRILLLKVAGFNLLMTLRLWSSRAKRSGSGVKQTLNFDLLKLAGDVESNPGPSRGHMTEYKPTVRLATRDDVPRAVRTLAAAFADYPATRHTVDPDRHIERVTELQELFLTRVGLDIGKVWVADDGAAVAVWTTPESVEAGAVFAEIGPRMAELSGSRLAAQQQMEGLLAPHRPKEPAWFLATVGVSPDHQGKGLGSAVVLPGVEAAERAGVPAFLETSAPRNLPFYERLGFTVTADVEVPEGPRTWCMTRKPGA
# B3: 22119 (protein)
# chain: MALPVTALLLPLALLLHAARPDIQMTQSPSSLSASVGDRVTITCKASDHINNWLAWYQQKPGQAPKLLIYGATTLETGVPSRFSGSGSGTDYTLTISSLQPEDFATYYCQQSWNTPWTFGQGTKLEIKRLEADVSPKPTIFLPSIAETKLQKAGTYLCLLEKFFPDVIKIHWQEKKSNTILGSQEGNTMKTNDTYMKFSWLTVPEKSLDKEHRCIVRHENNKNGVDQEIIFPPIKTDVITMDPKDNCSKDANDTLLLQLTNTSAYYMYLLLLLKSVVYFAIITCCLLRRTAFCCNGEKSRAKRSGSGATNFSLLKQAGDVEENPGPTSATMDWIWRILFLVGAATGAHSGPQVQLQESGGGLAQAGGSLRLSCAASGRTFSMGWFRQAPGKEREFVAAITYSGGSPYYASSVRGRFTISRDNAKNTVYLQMNSLKPEDTAVYYCAANPTYGSDWNAENWGQGTQVTVSSGSGGGGSGGGGSGGGGSFEQVQLQQPGAELVKPGASVKMSCKASGYAFSSYWINWMKQKPGQGLEWIGQIYPGDGDTNYNGKFKGRATLTADTSSSTAYMQLSSLTSEDSAVYFCARSITTVVGCAMDYWGQGTSVTVSSTRPHTKPSVFVMKNGTNVACLVKEFYPKDIRINLVSSKKITEFDPAIVISPSGKYNAVKLGKYEDSNSVTCSVQHDNKTVHSTDFEVKTDSTDHVKPKETENTKQPSKSCHKPKAIVHTEKVNMMSLTVLGLRMLFAKTVAVNFLLTAKLFFLRAKRSGSGVKQTLNFDLLKLAGDVESNPGPSRGHMTEYKPTVRLATRDDVPRAVRTLAAAFADYPATRHTVDPDRHIERVTELQELFLTRVGLDIGKVWVADDGAAVAVWTTPESVEAGAVFAEIGPRMAELSGSRLAAQQQMEGLLAPHRPKEPAWFLATVGVSPDHQGKGLGSAVVLPGVEAAERAGVPAFLETSAPRNLPFYERLGFTVTADVEVPEGPRTWCMTRKPGA
# B4: CD8SP-BCMA-FHVH-93-G4S-CD19-MOR0028-scFv-hCD8TM-BBZ-T2A-PAC (protein)
# chain: ACEVQLLESGGGLIQPGGSLRLSCAASGFTFSSHAMTWVRQAPGKGLEWVSAISGSGDYTHYADSVKGRFTISRDNSKNTVYLQMNSLRAEDSAVYYCAKDEDGGSLLGHRGQGTLVTVSSGTGGGGSGGGGSGGGGSEFINIYNAEPANPSEKNSPEFDIVMTQSPATLSLSPGERATLSCRSSKSLQNVNGNTYLYWFQQKPGQSPQLLIYRMSNLNSGVPDRFSGSGSGTEFTLTISSLEPEDFAVYYCMQHLEYPITFGAGTKLEIKGGGGSGGGGSGGGGSEVQLVESGGGLVKPGGSLKLSCAASGYTFTSYVMHWVRQAPGKGLEWIGYINPYNDGTKYNEKFQGRVTISSDKSISTAYMELSSLRSEDTAMYYCARGTYYYGTRVFDYWGQGTLVTVSSTRTTTPAPRPPTPAPTIASQPLSLRPEACRPAAGGAVHTRGLDFACDIYIWAPLAGTCGVLLLSLVITLYCKRGRKKLLYIFKQPFMRPVQTTQEEDGCSCRFPEEEEGGCELRVKFSRSADAPAYQQGQNQLYNELNLGRREEYDVLDKRRGRDPEMGGKPRRKNPQEGLYNELQKDKMAEAYSEIGMKGERRRGKGHDGLYQGLSTATKDTYDALHMQALPPRSSGSGEGRGSLLTCGDVEENPGPHMTEYKPTVRLATRDDVPRAVRTLAAAFADYPATRHTVDPDRHIERVTELQELFLTRVGLDIGKVWVADDGAAVAVWTTPESVEAGAVFAEIGPRMAELSGSRLAAQQQMEGLLAPHRPKEPAWFLATVGVSPDHQGKGLGSAVVLPGVEAAERAGVPAFLETSAPRNLPFYERLGFTVTADVEVPEGPRTWCMTRKPGA
# B5: 22125 (protein)
# chain: MALPVTALLLPLALLLHAARPEVQLVESGGGLVQAGGSLRLSCAASGRTFSMGWFRQAPGKEREFVAAITYSGGSPYYADSVKGRFTISRDNAKNTVYLQMNSLKPEDTAVYYCAANPTYGSDWNAENWGQGTQVTVSSGTGGGGSGGGGSGGGGSEFDIQMTQSPSSLSASVGDRVTITCKASDHINNWLAWYQQKPGQAPKLLIYGATTLETGVPSRFSGSGSGTDYTLTISSLQPEDFATYYCQQSWNTPWTFGQGTKLEIKRLEDLKNVFPPEVAVFEPSKAEIAHTQKATLVCLATGFYPDHVELSWWVNGKEVHSGVCTDPQPLKEQPALNDSRYCLSSRLRVSATFWQNPRNHFRCQVQFYGLSENDEWTQDRAKPVTQIVSAEAWGRADCGITSASYHQGVLSATILYEILLGKATLYAVLVSALVLMAMVKRKDSRGRAKRSGSGATNFSLLKQAGDVEENPGPTSATMDWIWRILFLVGAATGAHSGPQVQLQESGGGLAQAGGSLRLSCAASGRTFSMGWFRQAPGKEREFVAAITYSGGSPYYASSVRGRFTISRDNAKNTVYLQMNSLKPEDTAVYYCAANPTYGSDWNAENWGQGTQVTVSSGSGGGGSGGGGSGGGGSFEQVQLQQPGAELVKPGASVKMSCKASGYAFSSYWINWMKQKPGQGLEWIGQIYPGDGDTNYNGKFKGRATLTADTSSSTAYMQLSSLTSEDSAVYFCARSITTVVGCAMDYWGQGTSVTVSSTRIQNPDPAVYQLRDSKSSDKSVCLFTDFDSQTNVSQSKDSDVYITDKCVLDMRSMDFKSNSAVAWSNKSDFACANAFNNSIIPEDTFFPSSDVPCDVKLVEKSFETDTNLNFQNLSVIGFRILLLKVAGFNLLMTLRLWSSRAKRSGSGVKQTLNFDLLKLAGDVESNPGPSRGHMTEYKPTVRLATRDDVPRAVRTLAAAFADYPATRHTVDPDRHIERVTELQELFLTRVGLDIGKVWVADDGAAVAVWTTPESVEAGAVFAEIGPRMAELSGSRLAAQQQMEGLLAPHRPKEPAWFLATVGVSPDHQGKGLGSAVVLPGVEAAERAGVPAFLETSAPRNLPFYERLGFTVTADVEVPEGPRTWCMTRKPGA
# Experiments:
# Format in all cases: cell-based
# RS;411 = test: JNG assay, co-culture with RS;411 cells; details: co-culture with RS411
# In short: (§1)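 Read-out is NFAT-driven GFP measured by flow cytometry after ~4–18 h co-culture of SAR-expressing JNG cells with target cells (E:T about 1:2). SARs were introduced by lentiviral spinfection and selected with puromycin or blasticidin when possible; scores (+/- to 5+ ≈ 5–50% GFP+) are relative to parental JNG cells.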
# RAJI cells = test: JNG assay, co-culture with RAJI cells; details: co-culture with Raji; for NFAT-GFP ASSAY: Raji: JNG cells expressing construct
# In short: as §1
# RAJI-CD19-KO cells = test: JNG assay, co-culture with RAJI-CD19-KO cells; details: co-culture with Raji-CD19-KO
# In short: as §1
Molecule,NFAT-GFP ASSAY: RS411 (RS;411),NFAT-GFP ASSAY: Raji (RAJI cells),NFAT-GFP ASSAY: Raji-CD19-KO (RAJI-CD19-KO cells),"NFAT-GFP ASSAY (JNG): GFP induction, RS411 (RS;411)","NFAT-GFP ASSAY (JNG): GFP induction, Raji (RAJI cells)","NFAT-GFP ASSAY (JNG): GFP induction, Raji-CD19-KO (RAJI-CD19-KO cells)"
B1,"4+ (refer to approximately 5%, 10%, 20%, 30%, 40% and 50% GFP positive cells)","5+ (refer to approximately 5%, 10%, 20%, 30%, 40% and 50% GFP positive cells)","4+ (refer to approximately 5%, 10%, 20%, 30%, 40% and 50% GFP positive cells)",–,–,–
B2,"5+ (refer to approximately 5%, 10%, 20%, 30%, 40% and 50% GFP positive cells)","5+ (refer to approximately 5%, 10%, 20%, 30%, 40% and 50% GFP positive cells)","5+ (refer to approximately 5%, 10%, 20%, 30%, 40% and 50% GFP positive cells)",–,–,–
B3,"3+ (refer to approximately 5%, 10%, 20%, 30%, 40% and 50% GFP positive cells)","4+ (refer to approximately 5%, 10%, 20%, 30%, 40% and 50% GFP positive cells)","3+ (refer to approximately 5%, 10%, 20%, 30%, 40% and 50% GFP positive cells)",–,–,–
B4,–,–,–,"5+ (refer to approximately 5%, 10%, 20%, 30%, 40% and 50% GFP positive cells)","4+ (refer to approximately 5%, 10%, 20%, 30%, 40% and 50% GFP positive cells)","3+ (refer to approximately 5%, 10%, 20%, 30%, 40% and 50% GFP positive cells)"
B5,"+/- (refer to approximately 5%, 10%, 20%, 30%, 40% and 50% GFP positive cells)","4+ (refer to approximately 5%, 10%, 20%, 30%, 40% and 50% GFP positive cells)","5+ (refer to approximately 5%, 10%, 20%, 30%, 40% and 50% GFP positive cells)",–,–,–

# Source: patent publication US20230212319A1, “NOVEL ANTIGEN BINDING DOMAINS AND SYNTHETIC ANTIGEN RECEPTORS INCORPORATING THE SAME” (University of Southern California, priority 2020, published 2023)
